Reference: article PMC5036196, “Structural and histone binding ability characterization of the ARB2 domain of a histone deacetylase Hda1 from Saccharomyces cerevisiae” (Scientific Reports, 2016)
Residue numbers refer to the chain shown, from its start.

B1: ARB2 domain of Hda1 (Hda1^457–698) (domain or fragment, Saccharomyces cerevisiae, UniProt P53973 457-698, looked up)
chain: LQKAIRQQQQHYLSDEFNFVTLPLVSMDLPDNTVLCTPNISESNTIIIVVHDTSDIWAKRNVISGTIDLSSSVIIDNSLDFIKWGLDRKYGIIDVNIPLTLFEPDNYSGMITSQEVLIYLWDNYIKYFPSVAKIAFIGIGDSYSGIVHLLGHRDTRAVTKTVINFLGDKQLKPLVPLVDETLSEWYFKNSLIFSNNSHQCWKENESRKPRKKFGRVLRCDTDGLNNIIEERFEEATDFILDS
notes: Hda1 (histone deacetylase), S. cerevisiae, C-terminal ARB2 domain, residues 457-698; Homodimer in the crystal (symmetry-related molecules) and by size-exclusion chromatography; A selenomethionine derivative was used for phasing only; also called Native-Hda1^457–698; wild-type ARB2 domain; source: E. coli BL21 (DE3), purified (Ni-NTA, HiTrap Q FF, Superdex 200)
B2: ARB2-M2 (residues Tyr468 and Glu472 mutated to Ala) (domain or fragment, Saccharomyces cerevisiae, UniProt P53973 457-698, looked up)
chain: B1 chain with Y12A, E16A
notes: Hda1, S. cerevisiae, ARB2 domain, residues 457-698, with two substitutions around the groove; source: E. coli BL21 (DE3), purified (Ni-NTA, HiTrap Q FF, Superdex 200)
B3: ARB2-M3 (residues Val481, Ser482, Met483 and Asp484 mutated to Ala) (domain or fragment, Saccharomyces cerevisiae, UniProt P53973 457-698, looked up)
chain: B1 chain with V25A, S26A, M27A, D28A
notes: Hda1, S. cerevisiae, ARB2 domain, residues 457-698, with four substitutions around the groove; source: E. coli BL21 (DE3), purified (Ni-NTA, HiTrap Q FF, Superdex 200)
B4: ARB2-M1 (residues Gln463, His467 and Asp471 mutated to Ala) (domain or fragment, Saccharomyces cerevisiae, UniProt P53973 457-698, looked up)
chain: B1 chain with Q7A, H11A, D15A
notes: Hda1, S. cerevisiae, ARB2 domain, residues 457-698, with three substitutions around the groove; source: E. coli BL21 (DE3), purified (Ni-NTA, HiTrap Q FF, Superdex 200)

Assays:
[1] = target: yeast histone H3-H4 tetramer (Saccharomyces cerevisiae, UniProt P61830 1-136; P02309 1-103); test: ITC; ITC200 at 20 °C; 0.5 mM ARB2 or mutant in the injector, 0.2 mM H2A/B or 0.25 mM H3/4 in the sample cell; 25 mM Tris-HCl pH 7.5, 200 mM NaCl; single-site fitting model; conditions: both partners purified
[2] = target: the molecule itself; test: SEC; Superdex 200 10/300 GL, 0.5 ml/min, 25 mM Tris-HCl pH 7.5, 200 mM NaCl; apparent molecular mass against standard proteins

Row | Binder | Kd [1] [µM] | dH [1] [kcal/mol] | stoichiometry N [1] | stoichiometry N [2]
1 | B1 | 3.24 ± 0.49 | -33.9 | 1.52 | 2
2 | B2 | 6.93 ± 1.24 | -24.1 | 1.1 | 
3 | B3 | 8.19 ± 0.72 | -20.2 | 0.9 | 
4 | B4 | 9.84 ± 1.48 | -7.63 | 0.78 | 
